This is an account of results in publication PMC9117555 (iScience, 2022).

One data set deals with TrkA-ΔeJTM (rat) (UniProt P35739). As to the kind of experiment: flow cytometry on cells.
Data set [1] deals with rat TrkA with an N-terminal HA tag (wild type) (rat, UniProt P35739 33-799). Put plainly: flow cytometry on cells.
The data set “solution NMR” concerns the molecule itself. Put plainly: solution NMR.
The data set “cross-linking” concerns the molecule itself. As to the kind of experiment: cross-linking.

Usually Kd stands for the concentration at which binding is half-saturated. One may read the stoichiometry N as the number of molecules, sites or subunits per partner or assembly.

In the data set with TrkA-ΔeJTM (rat), “biotinylated NGF (nerve growth factor) (from UniProt P01139 122-241) (ligand)” came in with a Kd of 0.76 µM.

B1: biotinylated NGF (nerve growth factor) (ligand, UniProt P01139 122-241, looked up)
chain: SSTHPVFHMGEFSVCDSVSVWVGDKTTATDIKGKEVTVLAEVNINNSVFRQYFFETKCRASNPVESGCRGIDSKHWNSYCTTTHTFVKALTTDEKQAAWRFIRIDTACVCVLSRKATRRG
modifications: biotin (EZ-Link Sulfo-NHS-Biotin reagent; sites not stated)
The molecule B1 gave a Kd in data set [1] of 0.0044 µM.

B2: TrkA-eJTM-TMD (D380-K447 of human TrkA) (domain or fragment, UniProt P04629 380-447, looked up)
chain: DNPFEFNPEDPIPVSFSPVDTNSTSGDPVEKKDETPFGVSVAVGLAVFACLFLSTLLLVLNKCGRRNK
For the molecule B2, the “stoichiometry N” value in the data set “solution NMR” turned out to be 2.

B3: TrkA-eJTM-TMD-K410C (domain or fragment, human, UniProt P04629 380-447, looked up)
chain: DNPFEFNPEDPIPVSFSPVDTNSTSGDPVECKDETPFGVSVAVGLAVFACLFLSTLLLVLNKCGRRNK
modifications: also: disulfide between C410 of two chains in the cross-linked state (dimer)
Turning to B3, in the data set “cross-linking”, the “stoichiometry N” value stood at 2.
